From PMC5664961 (Biochemical Journal, 2017)

Tests used:
[1] = biological target: T1, human Cul3 N-terminal domain (NTD, residues M1-L388) with the engineered mutations I342R and L346D (human, UniProt Q13618 1-388, I342R | L346D); experiment: ITC; KCTD5 titrated into Cul3 NTD; 25°C; 50 mM HEPES pH 7.5, 150 mM NaCl, 1 mM TCEP, 5% glycerol; single-binding site model; conditions: both partners purified
T1 construct: Cullin-3, human, UniProt Q13618, N-terminal domain residues M1-L388, with I342R and L346D introduced to stabilize the isolated Cullin-repeat domain; only the vector pNIC-CTHF is named, the tag is inferred from it; The general methods say that eluted proteins were cleaved with TEV protease; also called Cullin3; Cul3 NTD; source: E. coli BL21(DE3)R3-pRARE2, purified (nickel-sepharose, SEC)

[2] = biological target: the molecule itself; experiment: SEC-MALS; BTB domains alone, injected at 50 µM; Shodex KW-803; 50 mM HEPES pH 7.5, 150 mM NaCl, 1 mM TCEP
[3] = biological target: T2, human Cul3 N-terminal domain (NTD, residues M1-L388) with the engineered mutations I342R and L346D (human, UniProt Q13618 1-388, I342R | L346D); experiment: ITC; KCTD protein titrated into Cul3 in the cell; 15°C; 50 mM HEPES pH 7.5, 150 mM NaCl, 1 mM TCEP, 5% glycerol; single-binding site model; conditions: both partners purified
T2 construct: Cullin-3, human, UniProt Q13618, N-terminal domain residues M1-L388, with the stabilising mutations I342R and L346D; The methods say in general that the eluted His-tagged proteins were cleaved with TEV protease; also called Cullin3; Cul3 NTD; source: E. coli BL21(DE3)R3-pRARE2, purified (nickel-sepharose, TEV cleavage, SEC)

[4] = biological target: T1, human Cul3 N-terminal domain (NTD, …); experiment: ITC; KCTD protein titrated into Cul3 NTD; 15°C; 50 mM HEPES pH 7.5, 150 mM NaCl, 1 mM TCEP, 5% glycerol; single-binding site model; conditions: both partners purified
[5] = biological target: T1, human Cul3 N-terminal domain (NTD, …); experiment: SEC; KCTD protein alone and mixed with Cul3 NTD at a molar ratio of 1 : 1; UV 280 nm traces; injected at 50 µM; 50 mM HEPES pH 7.5, 150 mM NaCl, 1 mM TCEP; conditions: both partners purified
[6] = biological target: T2, human Cul3 N-terminal domain (NTD, …); experiment: ITC; KCTD5 titrated into Cul3 in the cell; 25°C; 50 mM HEPES pH 7.5, 150 mM NaCl, 1 mM TCEP, 5% glycerol; single-binding site model; conditions: both partners purified
[7] = biological target: the molecule itself; experiment: crystal structure; BTB domains alone, sitting-drop vapour diffusion at 20 and 4°C, data at 100 K
[8] = biological target: T1, human Cul3 N-terminal domain (NTD, …); experiment: SAXS; KCTD-Cul3 complexes co-purified over S200, ~10% more Cul3 added, 10 mg/ml injected onto Shodex KW404 at 20°C; 50 mM HEPES pH 7.5, 150 mM NaCl, 1 mM TCEP, 5% glycerol; curves compared with a 5 : 5 model; conditions: both partners purified
[9] = biological target: the molecule itself; experiment: as above

B1: human KCTD5 BTB domain (residues G40-R145) (domain or fragment)
chain: not shown
notes: KCTD5, human, UniProt Q9NXV2, BTB domain residues G40-R145; cleaved with TEV protease by the general methods; source: E. coli BL21(DE3)R3-pRARE2, purified (nickel-sepharose, TEV cleavage, SEC); not shown: His6, N-terminal, cleaved
Q: How did the Kd [1] turn out when B1 was run?
A: 55 nM

Q: And the “stoichiometry N” value [2]?
A: 5

B2: SHKBP1 BTB domain (residues G18-S120) (domain or fragment, human, UniProt Q8TBC3 18-120, looked up)
chain: GEVIHLNVGGKRFSTSRQTLTWIPDSFFSSLLSGRISTLKDETGAIFIDRDPTVFAPILNFLRTKELDPRGVHGSSLLHEAQFYGLTPLVRRLQLREELDRSS
notes: TEV cleavage stated in general in the methods; source: E. coli BL21(DE3)R3-pRARE2, purified (nickel-sepharose, TEV cleavage, SEC); not shown: His6, N-terminal, cleaved
Q: What does the source list for B2?
A: Ka [3]: 1.15e+07 M⁻¹; stoichiometry N [3]: 0.92

B3: human SHKBP1 BTB domain (residues G18-S120) (domain or fragment, UniProt Q8TBC3 18-120, looked up)
chain: B2 chain
notes: cleaved with TEV protease by the general methods; source: E. coli BL21(DE3)R3-pRARE2, purified (nickel-sepharose, TEV cleavage, SEC); not shown: His6, N-terminal, cleaved
Q: What does the source list for B3?
A: Kd [4]: 87 nM; stoichiometry N [5]: 1 KCTD : Cul3 (5 : 5)

B4: KCTD5 BTB domain (residues G40-R145) (domain or fragment)
chain: not shown
notes: Pentamer by SEC-MALS; TEV cleavage stated in general in the methods; source: E. coli BL21(DE3)R3-pRARE2, purified (nickel-sepharose, TEV cleavage, SEC); not shown: His6, N-terminal, cleaved
Q: B4 was tested. Which Ka [6] did it give?
A: 1.8e+07 M⁻¹

Q: What about the “stoichiometry N” value [6] of the same binder?
A: 0.81

B5: KCTD5 BTB + CTD multi-domain construct (residues G40-M234) (domain or fragment, human, UniProt Q9NXV2 40-234, looked up)
chain: GSVSKWVRLNVGGTYFLTTRQTLCRDPKSFLYRLCQADPDLDSDKDETGAYLIDRDPTYFGPVLNYLRHGKLVINKDLAEEGVLEEAEFYNITSLIKLVKDKIRERDSKTSQVPVKHVYRVLQCQEEELTQMVSTMSDGWKFEQLVSIGSSYNYGNEDQAEFLCVVSKELHNTPYGTASEPSEKAKILQERGSRM
notes: as for B2
Q: B5 was tested. Which Ka [6] did it give?
A: 7.95e+08 M⁻¹

Q: And the “stoichiometry N” value [6]?
A: 0.94

B6: human KCTD5 BTB + CTD multi-domain construct (residues G40-M234) (domain or fragment, UniProt Q9NXV2 40-234, looked up)
chain: B5 chain
notes: KCTD5, human, UniProt Q9NXV2, BTB + CTD residues G40-M234; cleaved with TEV protease by the general methods; also called multi-domain KCTD5; source: E. coli BL21(DE3)R3-pRARE2, purified (nickel-sepharose, TEV cleavage, SEC); not shown: His6, N-terminal, cleaved
Q: With B6 as the binder, how does the Kd [1] read?
A: 1 nM

B7: KCTD13 BTB domain (residues G27-L144) (domain or fragment, human, UniProt Q8WZ19 27-144, looked up)
chain: GPAAYGLKPLTPNSKYVKLNVGGSLHYTTLRTLTGQDTMLKAMFSGRVEVLTDAGGWVLIDRSGRHFGTILNYLRDGSVPLPESTRELGELLGEARYYLVQGLIEDCQLALQQKRETL
notes: TEV cleavage stated in general in the methods; also called BACURD1; source: E. coli BL21(DE3)R3-pRARE2, purified (nickel-sepharose, TEV cleavage, SEC); not shown: His6, N-terminal, cleaved
Q: B7 was tested. Which Ka [3] did it give?
A: 1.01e+07 M⁻¹

Q: And the “stoichiometry N” value [3]?
A: 0.87

B8: human KCTD13 BTB domain (residues G27-L144) (domain or fragment, UniProt Q8WZ19 27-144, looked up)
chain: B7 chain
notes: KCTD13, human, UniProt Q8WZ19, BTB domain residues G27-L144; cleaved with TEV protease by the general methods; also called BACURD1; source: E. coli BL21(DE3)R3-pRARE2, purified (nickel-sepharose, TEV cleavage, SEC); not shown: His6, N-terminal, cleaved
Q: Which results are given for B8?
A: Kd [4]: 100 nM; stoichiometry N [7]: 4; stoichiometry N [8]: 1 KCTD : Cul3 (5 : 5); stoichiometry N [9]: 5

B9: human KCTD10 BTB domain (residues G26-E135) with F61L (domain or fragment, UniProt Q9H3F6 26-135, looked up)
chain: GTSPSSKYVKLNVGGALYYTTMQTLTKQDTMLKAMLSGRMEVLTDSEGWILIDRCGKHFGTILNYLRDGAVPLPESRREIEELLAEAKYYLVQGLVEECQAALQNKDTYE
notes: KCTD10, human, UniProt Q9H3F6, BTB domain residues G26-E135; cleaved with TEV protease by the general methods; source: E. coli BL21(DE3)R3-pRARE2, purified (nickel-sepharose, TEV cleavage, SEC); not shown: His6, N-terminal, cleaved
Q: B9 was tested. Which “stoichiometry N” value [7] did it give?
A: 4

B10: human KCTD16 BTB domain (residues G16-E133) (domain or fragment, UniProt Q68DU8 16-133, looked up)
chain: GSAVPNSFPEVVELNVGGQVYFTRHSTLISIPHSLLWKMFSPKRDTANDLAKDSKGRFFIDRDGFLFRYILDYLRDRQVVLPDHFPEKGRLKREAEYFQLPDLVKLLTPDEIKQSPDE
notes: KCTD16, human, UniProt Q68DU8, BTB domain residues G16-E133; cleaved with TEV protease by the general methods; source: E. coli BL21(DE3)R3-pRARE2, purified (nickel-sepharose, TEV cleavage, SEC); not shown: His6, N-terminal, cleaved
Q: How did the “stoichiometry N” value [2] turn out when B10 was run?
A: 5
